The values that follow come from publication PMC3324550, “Antibiotic Resistance Is Prevalent in an Isolated Cave Microbiome” (PLoS ONE, 2012).

For series [1], the system named is T1, MPH (2′)-II from B. paraconglomeratum (mphE).
T1 construct: codon-optimised synthetic gene in pET28b (NdeI/HindIII), E. coli BL21(DE3); IMAC and gel filtration
As to the kind of experiment: pyruvate kinase/lactate dehydrogenase coupled assay, NADH absorbance at […] nm. In kind it is biochemical, Brachybacterium paraconglomeratum.

Series [2] deals with CC[C@H]1OC(=O)[C@H](C)C(=O)[C@H](C)[C@@H](O[C@@H]2O[C@H](C)C[C@H](N(C)C)[C@H]2O)[C@](C)(OC)C[C@@H](C)C(=O)[C@H](C)[C@H]2N(CCCCn3cnc(-c4cccnc4)c3)C(=O)O[C@]12C. As to the kind of experiment: purified protein. In kind it is biochemical, Brachybacterium faecium. The note with it: GTP 200 µM.
The test system of series [3] is CC[C@H]1OC(=O)[C@H](C)[C@@H](O[C@H]2C[C@@](C)(OC)[C@@H](O)[C@H](C)O2)[C@H](C)[C@@H](O[C@@H]2O[C@H](C)C[C@H](N(C)C)[C@H]2O)[C@](C)(O)C[C@@H](C)/C(=N\OCOCCOC)[C@H](C)[C@@H](O)[C@]1(C)O. As to the kind of experiment: purified protein. It is filed as biochemical, Brachybacterium faecium. As to conditions: GTP 200 µM.
In series [4] the test system is CC[C@H]1OC(=O)[C@H](C)[C@@H](O[C@H]2C[C@@](C)(OC)[C@@H](O)[C@H](C)O2)[C@H](C)[C@@H](O[C@@H]2O[C@H](C)C[C@H](N(C)C)[C@H]2O)[C@](C)(O)C[C@@H](C)C(=O)[C@H](C)[C@@H](O)[C@]1(C)O. As to the kind of experiment: purified protein. In kind it is biochemical, Brachybacterium faecium. As to conditions: GTP 200 µM.
In series [5] the test system is CC[C@H]1OC(=O)[C@H](C)[C@@H](O[C@H]2C[C@@](C)(OC)[C@@H](O)[C@H](C)O2)[C@H](C)[C@@H](O[C@@H]2O[C@H](C)C[C@H](N(C)C)[C@H]2O)[C@](C)(O)C[C@@H](C)CN(C)[C@H](C)[C@@H](O)[C@]1(C)O. As to the kind of experiment: purified protein. It is filed as biochemical, Brachybacterium faecium. The note with it: GTP 200 µM.
The test system of series [6] is CC[C@H]1OC(=O)[C@H](C)[C@@H](O[C@H]2C[C@@](C)(OC)[C@@H](O)[C@H](C)O2)[C@H](C)[C@@H](O[C@@H]2O[C@H](C)C[C@H](N(C)C)[C@H]2O)[C@](C)(OC)C[C@@H](C)C(=O)[C@H](C)[C@@H](O)[C@]1(C)O. As to the kind of experiment: purified protein. In kind it is biochemical, Brachybacterium faecium. The note with it: GTP 200 µM.
The test system of series [7] is Nc1nc2c(ncn2[C@@H]2O[C@H](COP(=O)(O)OP(=O)(O)OP(=O)(O)O)[C@@H](O)[C@H]2O)c(=O)[nH]1. As to the kind of experiment: purified protein. It is filed as biochemical, Brachybacterium faecium. The note with it: erythromycin 400 µM (table note; methods say 200 µM macrolide).
Series [8] addresses T1, MPH (2′)-II from B. paraconglomeratum (mphE). As to the kind of experiment: pyruvate kinase/lactate dehydrogenase coupled assay, NADH absorbance at […] nm. In kind it is biochemical, Brachybacterium paraconglomeratum. The note with it: substrate inhibition constant (substrate-inhibition fit); GTP 200 µM.

Regarding `CC[C@H]1OC(=O)[C@H](C)[C@@H](O[C@H]2C[C@@](C)(OC)[C@@H](O)[C@H](C)O2)[C@H](C)[C@@H](O[C@@H]2O[C@H](C)C[C@H](N(C)C)[C@H]2O)[C@](C)(O)C[C@@H](C)C(=O)[C@H](C)[C@@H](O)[C@]1(C)O` [Erythromycin], in series [1] (GTP 200 µM), the Michaelis constant (Km) turned out to be 43.8 ± 11.3 µM.
Same read-out and setting: next, `CC[C@H]1OC(=O)[C@H](C)[C@@H](O[C@H]2C[C@@](C)(OC)[C@@H](O)[C@H](C)O2)[C@H](C)[C@@H](O[C@@H]2O[C@H](C)C[C@H](N(C)C)[C@H]2O)[C@](C)(O)C[C@@H](C)/C(=N\OCOCCOC)[C@H](C)[C@@H](O)[C@]1(C)O` [Roxithromycin]: 59 ± 10.9 µM.
Turning to `Nc1nc2c(ncn2[C@@H]2O[C@H](COP(=O)(O)OP(=O)(O)OP(=O)(O)O)[C@@H](O)[C@H]2O)c(=O)[nH]1` [GTP], the Km in series [1] (erythromycin 400 µM (table note; methods say 200 µM macrolide)) came out at 10.2 ± 0.53 µM.
`CC[C@H]1OC(=O)[C@H](C)[C@@H](O[C@H]2C[C@@](C)(OC)[C@@H](O)[C@H](C)O2)[C@H](C)[C@@H](O[C@@H]2O[C@H](C)C[C@H](N(C)C)[C@H]2O)[C@](C)(O)C[C@@H](C)CN(C)[C@H](C)[C@@H](O)[C@]1(C)O` [Azithromycin]: the Michaelis-Menten constant (Km) in series [1] (GTP 200 µM) was 54 ± 7.59 µM.
On the same count and under the same terms, next, `CC[C@H]1OC(=O)[C@H](C)[C@@H](O[C@H]2C[C@@](C)(OC)[C@@H](O)[C@H](C)O2)[C@H](C)[C@@H](O[C@@H]2O[C@H](C)C[C@H](N(C)C)[C@H]2O)[C@](C)(OC)C[C@@H](C)C(=O)[C@H](C)[C@@H](O)[C@]1(C)O` [Clarithromycin]: 21.9 ± 5.45 µM.
In the case of “MPH (2′)-II from B. faecium DSM 4810 (Brachybacterium faecium DSM 4810)”, the Km in series [2] came to 23.9 ± 4.22 µM; in series [3] it was 19.3 ± 2.60 µM; in series [4], 38.2 ± 6.24 µM; in series [5] it was 60.6 ± 8.86 µM; in series [6] it was 42.0 ± 6.26 µM; in series [7] it was 16.0 ± 1.3 µM. In addition, the catalytic constant (kcat) in series [2] stood at 0.168 s⁻¹; in series [3], 0.262 s⁻¹; in series [4], 0.192 s⁻¹; in series [5], 0.312 s⁻¹; in series [6] it was 0.286 s⁻¹; in series [7], 0.203 s⁻¹. For the same compound, the kcat/Km amounted to 7050 M⁻¹ s⁻¹ in series [2]; 13600 M⁻¹ s⁻¹ in series [3]; 5030 M⁻¹ s⁻¹ in series [4]; 5180 M⁻¹ s⁻¹ in series [5]; 6810 M⁻¹ s⁻¹ in series [6]; 12700 M⁻¹ s⁻¹ in series [7].
As for `CC[C@H]1OC(=O)[C@H](C)C(=O)[C@H](C)[C@@H](O[C@@H]2O[C@H](C)C[C@H](N(C)C)[C@H]2O)[C@](C)(OC)C[C@@H](C)C(=O)[C@H](C)[C@H]2N(CCCCn3cnc(-c4cccnc4)c3)C(=O)O[C@]12C` [Telithromycin], the Km in series [1] (GTP 200 µM, substrate-inhibition fit) was 12.2 ± 5 µM. Besides, the “Ki” value in series [8] was 600 ± 285 µM.
